From patent US20250263502A1 (published 2025) come the findings set out here.

In experiment [1] the target is T1, ectodomain of human CD98hc (human, UniProt P08195 105-529).
T1 chain: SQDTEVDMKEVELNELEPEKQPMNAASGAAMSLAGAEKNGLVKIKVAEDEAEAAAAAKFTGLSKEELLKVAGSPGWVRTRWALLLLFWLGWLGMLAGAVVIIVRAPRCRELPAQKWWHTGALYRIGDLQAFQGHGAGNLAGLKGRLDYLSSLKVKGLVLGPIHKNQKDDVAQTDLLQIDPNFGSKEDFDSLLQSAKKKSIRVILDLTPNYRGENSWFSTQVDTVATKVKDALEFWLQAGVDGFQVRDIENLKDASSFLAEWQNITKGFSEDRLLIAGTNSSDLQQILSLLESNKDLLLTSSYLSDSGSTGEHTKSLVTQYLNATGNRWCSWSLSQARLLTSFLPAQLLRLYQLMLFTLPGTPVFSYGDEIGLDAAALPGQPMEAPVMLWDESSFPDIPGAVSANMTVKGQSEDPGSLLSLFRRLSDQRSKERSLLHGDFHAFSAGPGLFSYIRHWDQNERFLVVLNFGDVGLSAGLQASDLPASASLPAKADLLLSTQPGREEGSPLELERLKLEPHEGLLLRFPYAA
Nature of the experiment: ELISA, purified VNAR-Fc titrated on coated CD98hc.

Experiment [2] deals with T1, ectodomain of human CD98hc. In words: ELISA, expression medium of VNAR-hFc on coated protein. In general terms: An ELISA detects its analyte on a solid surface through an enzyme-linked reagent.
The target of experiment [3] is T1, ectodomain of human CD98hc. In words: ELISA, VNAR-hFc titrated on coated human CD98hc.

For orientation: EC50 means the concentration needed to bring the measured effect to its halfway point. Read a high EC50 as lower potency in that assay.

B1: VNAR clone H6 fused N-terminally to human IgG1 Fc (VNAR-hFc) (Fc fusion)
chain: ARVDQTPQTITKEEGESLTINCVLRTHSNALASTSWYRKKSGSTREETISKGGRYVETVNSGSKSFSLRINDLTVEDSGTYRCNVYAFLEIQPNIYHEFDVYGDGTAVTVNA
notes: Bivalent VNAR-Fc from Expi293 cells; not shown: human IgG1 Fc (hinge, CH2 and CH3) as encoded by vector pFUSE-hIgG1e3-Fc2
The molecule B1 registered a concentration giving a half-maximal response (EC50) in experiment [1] of 6 nM. In addition, the “Binding [relative units]” value in experiment [2] was 3.31 relative units.

B2: VNAR clone E12 fused N-terminally to human IgG1 Fc (VNAR-hFc) (Fc fusion)
chain: ARVDQTPQTITKEEGESLTINCVLRTQDPALASTSWYRKKSGSTREETISKGGRYVETVNSGSKSFSLRINDLTVEDSGTYRCNVYFLLAPTKTKLQGIDVYGDGTAVTVNA
notes: as for B1
B2 returned a 50% effective concentration (EC50) in experiment [1] of 56 nM. For the same molecule, the “Binding [relative units]” value in experiment [2] stood at 2.19 relative units.

B3: VNAR clone D1 fused N-terminally to human IgG1 Fc (VNAR-hFc) (Fc fusion)
chain: ARVDQTPQTITKEEGESLTINCVLRHNYSALASTSWYRKKSGSTREETISKGGRYVETVNSGSKSFSLRINDLTVEDSGTYRCNVYGISFIEEKIRYDFDVYGDGTAVTVNA
notes: Bivalent VNAR-Fc from Expi293 cells; also called D1-hFc; not shown: human IgG1 Fc (hinge, CH2 and CH3) as encoded by vector pFUSE-hIgG1e3-Fc2
The molecule B3 returned an EC50 in experiment [1] of 28 nM. In experiment [2], the “Binding [relative units]” value came to 3.5 relative units.

B4: VNAR clone G3 fused N-terminally to human IgG1 Fc (VNAR-hFc) (Fc fusion)
chain: ARVDQTPQTITKETGESLTINCVLRDNNCALSTTYWYRKKSGSTNEENISKGGRYVETVNSGSKSFSLRINDLTVEDSGTYRCKVHFFPSFCNSTSIRSVDVYGGGTVVTVNA
notes: as for B1
In experiment [1], B4 registered an EC50 of 107 nM. In experiment [2], the “Binding [relative units]” value stood at 1.48 relative units.

B5: VNAR clone H7 fused N-terminally to human IgG1 Fc (VNAR-hFc) (Fc fusion)
chain: ARVDQTPQTITKEEGESLTINCVLRYNNPALASTSWYRKKSGSTREETISKGGRYVETVNSGSKSFSLRINDLTVEDSGTYRCNVYFFPSFLVDKLQSHDVYGDGTAVTVNA
notes: as for B1
In experiment [1], B5 gave an EC50 of 6 nM. Besides, the “Binding [relative units]” value in experiment [2] came to 3.93 relative units.

B6: VNAR clone F1 fused N-terminally to human IgG1 Fc (VNAR-hFc) (Fc fusion)
chain: ARVDQTPQTITKEEGESLTINCVLRVHGRALASTSWYRKKSGSTREETISKGGRYVETVNSGSKSFSLRINDLTVEDSGTYRCNVYGLSSGDIEGVKKIDVYGDGTAVTVNA
notes: Bivalent VNAR-Fc from Expi293 cells; also called F1-hFc; not shown: human IgG1 Fc (hinge, CH2 and CH3) as encoded by vector pFUSE-hIgG1e3-Fc2
As for B6, the 50% effective concentration (EC50) in experiment [1] was 3 nM. For the same molecule, in experiment [2], the “Binding [relative units]” value is 3.76 relative units.

B7: F12 variant F12-C01 as VNAR-hFc fusion (Fc fusion)
chain: ARVDQTPQTITKEEGESLTINCVLRVHGRALASTSWYRKKSGSTREETISKGGRYVETVNSGSKSFSLRINDLTVEDSGTYRCNVYGLSSGDSEGVKKIDVYGDGTAVTVNA
notes: not shown: human IgG1 Fc (hinge, CH2 and CH3) as encoded by vector pFUSE-hIgG1e3-Fc2
For B7, the EC50 in experiment [3] was 30 nM.

B8: F12 variant F12-G02 as VNAR-hFc fusion (Fc fusion)
chain: ARVDQTPQTITKEEGESLTINCVLRVHGRALASTSWYRKKSGSTREETISKGGRYVETVNSGSKSFSLRINDLTVEDSGTYRCNVYGLMNVDIEGVKKIDVYGDGTAVTVNA
notes: as for B7
Take B8: the EC50 in experiment [3] turned out to be 10 nM.

B9: F12 variant F12-H04 as VNAR-hFc fusion (Fc fusion)
chain: ARVDQTPQTITKEEGESLTINCVLRVHGRALASTSWYRKKSGSTREETISKGGRYVETVNSGSKSFSLRINDLTVEDSGTYRCNVYGLMQGDIEGVKKIDVYGDGTAVTVNA
notes: as for B7
On to B9, for which, in experiment [3], the EC50 amounted to 20 nM.

B10: F12 variant F12-B12 as VNAR-hFc fusion (Fc fusion)
chain: ARVDQTPQTITKEEGESLTINCVLRVHGRALASTSWYRKKSGSTREETISKGGRYVETVNSGSKSFSLRINDLTVEDSGTYRCNVNGLSSGDIEGVKKLDVYGDGTAVTVNA
notes: as for B7
In experiment [3], B10 showed an EC50 of 10 nM.

B11: F12 variant F12-E03 as VNAR-hFc fusion (Fc fusion)
chain: ARVDQTPQTITKEEGESLTINCVLRVHGRALASTSWYRKKSGSTREETISKGGRYVETVNSGSKSFSLRINDLTVEDSGTYRCNVNGLSSGDQEGVKKIDVYGDGTAVTVNA
notes: as for B7
Molecule B11 came in with an EC50 in experiment [3] of 40 nM.

B12: VNAR clone F12 fused N-terminally to human IgG1 Fc (VNAR-hFc) (Fc fusion)
chain: ARVDQTPQTITKEEGESLTINCVLRVHGRALASTSWYRKKSGSTREETISKGGRYVETVNSGSKSFSLRINDLTVEDSGTYRCNVYGLSFGDIEGVKKIDVYGDGTAVTVNA
notes: Bivalent VNAR-Fc from Expi293 cells; also called F12-hFc; VNAR F12-hFc; not shown: human IgG1 Fc (hinge, CH2 and CH3) as encoded by vector pFUSE-hIgG1e3-Fc2
For B12, in experiment [1], the EC50 came out at 12 nM. Besides, the “Binding [relative units]” value in experiment [2] was found to be 3.99 relative units.

B13: F12 variant F12-G04 as VNAR-hFc fusion (Fc fusion)
chain: ARVDQTPQTITKEEGESLTINCVLRVHGRALASTSWYRKKSGSTREETISKGGRYVETVNSGSKSFSLRINDLTVEDSGTYRCNVNGLSSGDIEGVKKIDVYGDGTAVTVNA
notes: as for B7
B13 displayed an EC50 in experiment [3] of 30 nM.

B14: F12 variant F12-A01 as VNAR-hFc fusion (Fc fusion)
chain: ARVDQTPQTITKEEGESLTINCVLRVHGRALASTSWYRKKSGSTREETISKGGRYVETVNSGSKSFSLRINDLTVEDSGTYRCNVNGLSSGDKEGVKKIDVYGDGTAVTVNA
notes: as for B7
As for B14, the EC50 in experiment [3] was 10 nM.
